The RNAGym collection of RNA variant scans (doi:10.1073/pnas.2313332121)
Variants at the floor of the assay were thinned out.

B1: TPR 5TU (parent)
chain: GGAUCUUCUCGAUCUAACAAAAAAGACAAAUCUGCCACAAAGCUUGAGAGCAUCUUCGGAUGCAGAGGCGGCAGCCUUCGGUGGCGCGAUAGCGCCAACGUUCUCAACUAUGACACGCAAAACGCGUGCUCCGUUGAAUGGAGUUUAUCAUG

Variants of: B1
Assay: polymerase ribozyme fitness, log enrichment relative to wild type (log ratio); higher = more active; in vitro selection for triplet polymerase activity
Method in brief: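 Fitness compares each genotype's enrichment to that of the wild type on a logarithmic scale, averaging replicates with inverse-variance weights. The logarithm is base 2. Enrichment came from Illumina sequencing of input and output libraries after one triplicate round of in vitro selection, which included frozen incubation at −7 °C, of PCR-built, transcribed mutant libraries of each subunit of a heterodimeric triplet polymerase ribozyme. Only genotypes with ≥10 input reads and ≥1 read per output were kept.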

Variant	polymerase ribozyme fitness (log ratio)
GGAUCUUCUCGAUCUAACAAAAAAGAAAAAUCUGCCACAAAGCUUGAGAUCAUCUUUGGCUGCAGAGGCGGCAGCCUUCGGUGGCGCGAUAGCGCCAACGUUCUCAACUAUGACAGGCAAAACGCGUGCUCCGUUGAAUGGAGUUGCUCAUG [C27A G50U C57U A60C C116G U146G A147C]	≤ -4.2
GGAUCUUCUCGAUCUAACAAAAAAGAUAAAUCUGCCACAAAGCUUGAGAGCAUCUUCGGAUGCAGAGGCGGCAGCCUUCGGUGGCGCGAUAGCGCCUACGUUCUCAACUAUGACAUGCACAACGCGUGCUCCGUUGAAUGGAGUUUAUCAUG [C27U A97U C116U A120C]	-3.06
GGAACUUCUCGAUCUAACAAAAAAGACAAAUCUGCCACAAAGCUUGAGAGCAUCUUCGGAUGCAGAGGCGGCAGCCUUCGGUGGCGCGAUAACGCCAACGUUCUCAACUAUGACACGCAAAACGCGUGCUCCGUUGAAUGAAGUUUAUCAUG [U4A G92A G141A]	-3.96
GGAUCUUCUCGAUCUAACAAAAAAGACAAAUCUGCCACAAAGCUUGAGAGCAUCUUCGGAUGCAGAGGCGGCAGCCUUCGGUGGCGCGAUGGCGCCAACGUUCUCAACUAUGACACGCAAAACGCGUGCUCCGUUGAAUGGAGAUUAUCAUG [A91G U144A]	-3.08
GGAUCUUCUCAAUCUAACAAAAAAGACAAAUCUGCCACAAAGCUUGAGAGCAUCUUCGGAUGCAGAGGCGGCAGCCUUCGGUGGCGCGAUAGCGCGAACGUUCUCAACUAUGACACGCACAACGCGUGCUCCGUUGAAUGGAGUUCAUCAUG [G11A C96G A120C U146C]	-1.48
GGAUCCUCUCGAUCUAACAAAAAAGACAAAUCUGCCACAAAUCUUGAGAGCAUCUUCGGAUGCAGAGGCGGCAGCCGUCGGUGGCGUGAUAGCGCCAACGUUCUCAACUAUGACACGCAAAUCGCGUGCUCCGUUGAAUGGAGUUUAUCAUG [U6C G42U U77G C87U A122U]	≤ -4.2
GGAUCUUCUCGAUCUAACAAAAAAGACAAAUCUGCCAAAAAGCUUGAGAGCAUCUUCGGAUGCAGAGGCGGCAGCCUUCGGUGGCGCGAUAGCGGCAAUGUUCUCAACUAUGACACGCAAAACGCGUGCUCCGUUGAGUGGAGUUUAUCAUG [C38A C95G C99U A138G]	≤ -4.2
GGAUCUUCUCGAUCUAACAAAAAAGACAAAUCUGCCACAAAGCUUGAGAGCAUAUUCGGAUGCAGAGGCGGCAGCCUUCGGUGGCGCGAUAGCGCGCACGUUCUCAACUAUGACACGCAAAACGCGUGCUCCGUUGAAUGGACUUUAUCAUG [C54A C96G A97C G143C]	≤ -4.2
GGAUCUUCUCGAUCUAACAAAAAAGACAAAUCUGCCACAAAGCUUGAGAGCAUCUUCGGAUGCAGAGGCGGCAGCCUUCGGUGGCGCGAUAGCGCCAACGUUCUCAACUAUGACACGGAAAACGCGUGCUCCGUUGAAUGGGGUUUAUCAUG [C118G A142G]	-1.54
GGAUCUUCUGGAUCUAACAAAAAAGACAAAUCUGCCACAAAGCUUGAGAGCAUCUUCGGAUGCAGAGGCGGCAGCAUUCGGUAGCGCGAUUGCGCCAACGUUCUCCAAUAUGACACGCAAAACGCGUGCACCGUUGAAUGGAGUUUAUCAUG [C10G C76A G83A A91U A106C C108A U130A]	≤ -4.2
GGAUCUUCUCGAUCUAACAAAAAAGAGACAUCUGCCACAAAGCUUGAGAGCAUCUUCGGAUGCAGAGGCGGCAGCCUUCGGUGGCGGGAUAGCGCCAACGUUCUCAACUAUGACACGCAAUACGCGUGCUCCGUUGAAUGGAGUUUAUCAUG [C27G A29C C87G A121U]	≤ -4.2
GGAUCUUCUCGAUCUAACAAUAAAGCCAAAUCUGCCACAAAGCUUGAGAGCAUCUUCGGAUGCAGAGGAGGCAGCCUUCGGUGUCGCGAUAGCGCCAACGUUCUCAACUAUGACACGCAAAACGCGUGCUCCGUUGAAUGGAGUUUAUCAUG [A21U A26C C69A G84U]	-3.67
GGAUCUUCUCGAUCUAACAAAAAAGAGAAGUCUGCCACUAAGCUUGAGAGCAUCUUCGGAUGCAGAGGCGGCAGCCUUCGGUGGCGAGAUAGCGCCAACGUUCUCAACUAUGACACGCAAAACGCGUGCUCCGUUGAAUGGAGUUUAUCAUG [C27G A30G A39U C87A]	≤ -4.2
GGAUCUUCUCGAUCUAACAAAAAAGACAAAUCUGCCACAAAGCUUGAGAGCAUAUUCGGAUGCAGAGGCGGCUGCCUUCGGUGGCGUGAUAGCGCCAACGUUCUCAACUAUGACACGCAAAACGCGUGCUCCGUUGAAUGGAGUUUAUCAUG [C54A A73U C87U]	-3.49
GGAUCUUCUCGAUCUAACAAAAAAGACAAAUCUGCCACAAAGCUUGAGAGCAUCUUCGGAUGCAGAGGCGGCAGCCUUCGGUGGCGCGAUAGCGCCAACGUUCUCAACUAUGACACGCAAAACGCAUGCUCUGUUGAAUGGAGUUUAUCAUG [G126A C132U]	-0.105
GGAUCUUCUCGAUCUAACAAUAAAGACAAAUCUGCCACAAAGCUUGAGAGCAUUUUCGGAUGUAGAGACGGCGGCCUUCGGUGGCGCGAUAGGGCCAACGUUCUCAAGUAUGACACGCAAAACGCGUGCUCCGUUGAAUGGAGUUUAGCAUG [A21U C54U C63U G68A A73G C93G C108G U148G]	≤ -4.2
GGAUCUUCUCGAUCUAACAAAAAAGACAAAUCUGCCACAAAGCUUGAGAGCAUCUUCGGAUGCAGAGGCGGCAGCCUUCGGUGUCGCGUUAGCGCCAACGUUCUCAACUAUGACACGCAAAACGCUUGCUCCGUUGAAUGGAGUUUAUCAUG [G84U A89U G126U]	-1.58
GGAUCUUCUCGAUCUAACAAAAAAGACAAAUCUGCCACAAAGCUUGAGAGCAUCUUCGGAUGCAGAGGCGGCAGCCUUCGAUGGCGCGAUAGCGCCAACGUUCUCAUCUAUGACACGCAAAACGCGUGCUCCGUUGAAUGGAGUUUAUCAUG [G81A A107U]	-3.89
GGAUCUUCUCGAUCUAACAAAAAAGACAAAGCUGCCACAAAGCUUGAGAGCCUCUUCGGAUGCUGAGGCGGCAGGCUUCGGUGGCGCGACAGCGCCAAUGUUCUCAACUAUGACACGCAAAACGCGUGCUCCGGUGAAUGGAGUUUAUCAUG [U31G A52C A64U C75G U90C C99U U134G]	≤ -4.2

Variant	polymerase ribozyme fitness (log ratio)
GGAUCUUCUCGAUCUAACAAAAAAGACAAAUCUGCCACAAAGCUUGACAGCAUCUUCGGAUGCAGAGGCGGCAGCCUUCGGUGGCGCGAUAGCGCCAACGUUCUCAACUAUGACACGCACAACGCGUGCUCCGUUGAAUGGAGUUUAUCAUG [G48C A120C]	-0.573
GGAUCUUCUCGAUCUAACAAAAAAGACAAAUCUGCGACAAAGCUUGAGAGCAUCUUGGGAUGCAGAGGCGGGAGCCUUCGGUGGCGCGAUAGCGCCAACGUUCUCAACUAUGACACGUAAAACGCGUGCUCCGUUGAAUGGAGUUUAUCAUG [C36G C57G C72G C118U]	≤ -4.2
GGAUCUUCUCGAUCUAACAAAAAAGACAAAUCUGCCACAUAGCUUGAGAGCAUCUUCGGAUGCAGAGGCGGCAGCCUUCGGUGGCGCGAUAACGCCAACGUUCUCAACUAUGACACGCACAACGCGUGCUCCGUUGAAUGGAGUUUAUCAUG [A40U G92A A120C]	-2.75
GGAUCUUCUCCAUCUAACAAAAAAGACAAAUUUGCCACAAAGCUUGAGAGCAUCUUCGGAUGCAGAGGAGGCAGCCUUCGGUGGCGCGAUAGCGCCAACGUUCUCAACUAUGACACGCAAGACGCGUGCUCCGUUGAAUGGAGUUUAUCAUG [G11C C32U C69A A121G]	-4.12
GGAUCUUCUCGAUCUAACAAAUAAGACAAAUCUGCCACAAAGCUUGAGAGCAUCUUUGGAUGCAGAGGCAGCAGCCUUCGCUCGCGCGAUAGCGCCAACCUUCUCCACUAUGACACGCAAAACGCGUGCUCCCUUGAAUGGAGUUUAUCAUG [A22U C57U G70A G81C G83C G100C A106C G133C]	≤ -4.2
GGAUCUUCUCGAUCUAACUAAAGAGACAAAUCUGCCACAAAGCUUGAGAGCAUCUUCGGAUGCAGAGGCGGCAGCCUUCGGUGACGCGAUAGCGCCAACGGUCUCAACUAUGACCCGCAAAACGCGUGCUCCGUUGAAUGGAGUUUAUCAUG [A19U A23G G84A U101G A115C]	-3.62
GGAUCUUCUCGAUCUAACAAAAAAGACAAAUCUGCCACAAAGCUUGAGAGCAUCAUCGGAUGCAGAGGCGGCAGCCUUCGGUAGCGCGAUAGCGCCAACGUUCUCAACUAUGACACGCAAAACGCGUGCUCCGUUGAAUGGAGUUUAUCAUG [U55A G83A]	-0.501
GGAUCUUCUCGAUCUAACAGAAAAGACAAAUCUGCCACACAGCUUGAGCACAUCUUCGGAUGCACAGACGGCAGCCUUCGGUGGCGUGAUAGCGCCAACGUUCUCAACUAUGACACGCAAAACUCGUGCUCCGUUGAAUGGAGUUUAUCAUG [A20G A40C A49C G50A G65C G68A C87U G124U]	≤ -4.2
GGAUCUUCUCGAUCUAACAAACAAGUCAAAUCUGCCACAAAGUUUGAGAGCAUCUUCGGAUGCAGAGGCGGCAGCAUUCGGUGGCGCGAUAGGGCCAACGUUCUCAACUAUGACACGGAAAACGCGUGCUCCGUUGAAUGGAGUUUAUCAUG [A22C A26U C43U C76A C93G C118G]	≤ -4.2
GGAUCUUCUCGAUCUAUCAGAAAAGACAAAUCUGCCACAAAGCUUGAGAGCAUCUUCGGAUGAAGAGGCGGCAGCCUUCGGUGGCGCGAUAACGCCAACGUUCUCAACUAUGACACGCAAAACGCGUGCUCCGUUGAAUGGAGUUUAUCUUG [A17U A20G C63A G92A A150U]	-2.12
GGAUCUUCUCGAUCUAACAAAAAAGACAAAUCUGUCACAAAGCUUGAGAGCAUCUUCGGGUGCAGAGGCGGCAGCCUUCGGUGGCGCGAUAGCGCCAACGUUCUCAACUAUGACACGCAAAACGCGUGCUCCGUUUAAUGGAGUUUAUCAUG [C35U A60G G136U]	-3.08
GGAUCUUCUCGAUCUCACAAAAAAGACAAAUCUGCCACAAAGCUUGAGAGCAUCUUCGGAUGCAGAGGCGGCAGCCUUCGGUGGCGCGGUAGCGCCAACGUUCUCAACUAUGACACGCAAAACGCGUGCUCCGUUGAAUGGAGUUUAUCAUG [A16C A89G]	-2.25
GGAUCUUCUCGAUCUAACAAAAAAGACAAAUCUGCAACAAAGCUUGAGAGCAUCUUCGGAUGCAGAGGCGGCAGCCUUCGGUGGCGCGAUAGCGCCAACGUUCUCAACUAUGACACUCAAAACGCGUGCUCCGUUGAAUGGAGUUUACCAUG [C36A G117U U148C]	≤ -4.2
GGAUCUUCUCGAUCUAACAAAAAAGACAAAUCUGCCACAAAGCUUGAGAGCAUCUUCGGAUGCAGAGGCGGCAGCCUUCGGUUGCGCGAUAGCGCCAACGUUCUCAACUAUGACACGCAAAAAGCGUGCUCCGUUGAAUGGAGUUUAUCAUG [G83U C123A]	-0.709
GGAUCUUCUUGAUCUAACAAAAAAGACAAAUCUGCCACAAAGCUUGAGAGCAUCUUCGGAUGCAGAGGCGGCAGCCUUCGGUGGCGUGAUAGCGCCAACGUUCUCAACUAUGACACGCAAAACGCGUGCUCCGUUGAAUGGAGUUUAUCAUG [C10U C87U]	-2.87
GGAUCUUCUCGAUCUAACAAAAAAGACACAUUUGGCACAAAGCUUGAGAGCAUCUUCGGAUGCAGUGGCGGCAGCCUUCGGUGGCGAGAUAGCCCCAACGUUCUCAUCUAUGACACGCAAAACGUGUGCUCCGUUGAAUGGAGUUUAUCAUG [A29C C32U C35G A66U C87A G94C A107U C125U]	≤ -4.2
GGAUCUUCUCGAUCUAACGAAAAAGACAAAUCUGCCACAAUGCUUGAGAGCAUCUUUGGAUGCAGAGGCGGCAGCCUUCGGUGUCGCGAUAGCGCCAACGUUCUCAACUAUGACACGCAAAACGCGUGCUCCGUUGAAUGGAGUUAUUCAAG [A19G A41U C57U G84U U146A A147U U151A]	≤ -4.2
GGAUCUUCUCGAUCUAACAAAAAAGACAAAUCUGCCACAAAGCUUGAGAGCAUCGUCGGAUGCAGAGGCGGCAGCCUUCGGUCGCGCGAUAGCGCCAACGUUCUCAACUAUGACACGCAAAACGCGUGCUCCGUAAAAUGGAGUUUAUAAUG [U55G G83C U135A G136A C149A]	≤ -4.2
GGAUCUUCUCGAUCUAACAAAAAAGACAAAUCUGCCACAAAGCUUGAGAGCAUCUUCGGAUGCAGAGGCGGCAGCCUUCGGUGGCGUGAUAGUGCCAACGUUCUCAACUAUGACACGCAAAACGCGUGCUCCGUUGAAUGGAGUUUAUCAUG [C87U C93U]	-2.9
